# B1: Proteinase K: hydrolase that digests proteins at aliphatic and aromatic residues, a broad-spectrum protease (protein, UniProt P06873 106-384, looked up)
# Proteinase K: AAQTNAPWGLARISSTSPGTSTYYYDESAGQGSCVYVIDTGIEASHPEFEGRAQMVKTYYYSSRDGNGHGTHCAGTVGSRTYGVAKKTQLFGVKVLDDNGSGQYSTIIAGMDFVASDKNNRNCPKGVVASLSLGGGYSSSVNSAAARLQSSGVMVAVAAGNNNADARNYSPASEPSVCTVGASDRYDRRSSFSNYGSVLDIFGPGTSILSTWIGGSTRSISGTSMATPHVAGLAAYLMTLGKTTAASACRYIADTANKGDLSNIPFGTVNLLAYNNYQA
# Test: Proteinase K activity as a function of pH and after pH neutralization
# Type: biochemical
# Details: for recovery of proteinase K activity after neutralization: after exposure to highly acidic (pH 3.5) or basic (pH 12) conditions, neutralized to pH 7 to 7.5
# Source text: FIGS. 1A-1C provide information on activating proteinase K at different pH conditions.
# Another method of deblocking after nucleotide addition using a conjugated enzyme is to digest the protein around the extended DNA. Proteinase K (ProK) is a hydrolase that digests proteins at aliphatic and aromatic residues making it a broad-spectrum protease^1 that could be used to fully digest TdT releasing the extended DNA for the next round of addition. This enzymatic cleavage step could potentially be spatially controlled via an electrochemically driven pH change, as depicted in FIG. 1A. […] A voltage would then be applied to electrodes near the DNA site to be cleaved for the next addition. This would cause a shift in the pH near this active electrode that would re-activate ProK to digest nearby TdT molecules, deblocking the DNA for subsequent nucleotide addition. ProK has some natural pH sensitivity^1-2 and could be further engineered to shift the activity profile into a desirable pH range.
molecule,measurement,setting,value
B1,recovery of proteinase K activity after neutralization,,recovers
same,recovery of proteinase K activity after neutralization,listed as ProK,activity can be recovered
same,proteinase K activity,at pH 12.5,negligible activity
same,proteinase K activity (relative to activity at pH 7.3),below pH 5 and above pH 10,complete dropoff in activity

# Source: US20250154548A1, “CONTROL OF ENZYMATIC NUCLEIC ACID SYNTHESIS VIA ELECTROCHEMICAL MEANS” (The Charles Stark Draper Laboratory, Inc., priority 2023, published 2025)
